Test results taken from US20040082509.

System: T1, L-JBD20 peptide (20 amino acid minimal JNK-inhibitory sequence of JIP-IB1)
T1 sequence: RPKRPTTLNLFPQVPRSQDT

caK
caK kinase activity (substrate caseine) at the tested peptide concentration: 500 µM of the JBD20 peptides did not interfere with the activity of 6 particular kinases: ERK2, p38, pKC, p34, caK and pKA

pKA
pKA kinase activity (substrate histone) at the tested peptide concentration: 500 µM of the JBD20 peptides did not interfere with the activity of 6 particular kinases: ERK2, p38, pKC, p34, caK and pKA

p38
p38 kinase activity (substrate ATF2) at the tested peptide concentration: 500 µM of the JBD20 peptides did not interfere with the activity of 6 particular kinases: ERK2, p38, pKC, p34, caK and pKA

p34
p34 kinase activity (substrate histone) at the tested peptide concentration: 500 µM of the JBD20 peptides did not interfere with the activity of 6 particular kinases: ERK2, p38, pKC, p34, caK and pKA

pKC
pKC kinase activity (substrate histone) at the tested peptide concentration: 500 µM of the JBD20 peptides did not interfere with the activity of 6 particular kinases: ERK2, p38, pKC, p34, caK and pKA
